Reference: patent publication US20250128187A1

Biological target: streptavidin immobilized on membrane (streptavidin modified membrane prepared according to FIG. 10) (Streptomyces avidinii) (UniProt P22629)
Test: depletion from solution; 0.0055 mL streptavidin membrane incubated in 0.4 mL of 1 mg/mL biotin-conjugate for 24 hours

streptavidin immobilized on membrane (streptavidin modified membrane prepared according to FIG. 10) (Streptomyces avidinii), sequence (P22629 37-163 limits assumed): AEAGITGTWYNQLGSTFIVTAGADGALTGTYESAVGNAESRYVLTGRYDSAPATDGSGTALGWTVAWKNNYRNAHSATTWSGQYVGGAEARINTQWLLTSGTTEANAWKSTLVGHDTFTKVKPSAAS

Row | Substance | Amount Immobilized (mg biotin-conjugate/mL membrane) (mg biotin-conjugate/mL membrane)
1 | Biotin-Mal 1 | 9.71
2 | Biotin-BSA (from UniProt P02769 25-607) | 38.6
